Experimental data published in article PMC8752837, “Structural basis of BAK activation in mitochondrial apoptosis initiation” (Nature Communications, 2022).

Experiments:
[1] = Liposome permeabilization by WT and mutant BAK proteins (autoactivation, or direct activation by BID BH3); type: biochemical; conditions: absence of BID BH3
Procedure: Human BAK-∆TM-His6 (BAK)[26] spontaneously permeabilizes liposomes above a certain dose (>100 nM, Fig. 1a). In these dye-release assays[43]–[46], BAK is recruited via His-tag to liposomes containing 2.5 µM of the lipid 1,2-dioleoyl-sn-glycero-3-[(N-(5-amino-1-carboxypentyl)iminodiacetic acid)succinyl] (nickel salt), DGS-NTA(Ni).
To probe autoactivation with full-length BAK, we mutated hydrophobic residues at positions (0)−(6) of the BH3 to alanine or arginine, and D83, which forms the conserved salt bridge (s) with R127, to alanine (Fig. 2a). The BH3 residues participate in autoactivation from the ligand side [hydrophobic positions (0)–(5) and D83(s)] and also from the receptor groove side [hydrophobic positions (3)–(5)] (Fig. 2a). Thus, substitutions at positions (3)–(5) should affect receptor and ligand activities and are predicted to impact BAK activation more severely than mutations of positions (0)–(2), which affect only ligand activity. […] In contrast, almost all (2)–(5) and (s) missense mutants were considerably impaired in autoactivation (Fig. 2b and Supplementary Fig. 3a). […] Despite impairment in autoactivation, all missense mutants were directly activated by BID BH3 peptide, although they induced lower level of permeabilization compared to WT BAK (Fig. 2b and Supplementary Fig. 3a).
We performed liposome permeabilization assays as previously described[43]–[46]. […] (nickel salt) [DGS NTA(Ni), 2.5 μM final concentration in each assay] (Avanti Polar Lipids). We prepared 12.5 mM fluorophore; 8-aminonaphthalene-1, 3, 6-trisulfonic acid, disodium salt (ANTS) and 45 mM quencher; p-xylene-bis-pyridiniumbromide (DPX) in LUV buffer (10 mM HEPES pH 6.8, 200 mM KCl and 5 mM MgCl2). We mixed the lipid film in ANTS/DPX solution by vortexing and sonication (~15 min) followed by extrusion through polycarbonate membrane of 2 μm pore size (Avanti Polar lipids) to generate homogenous large unilamellar vesicles (LUVs). We separated LUVs from free ANTS/DPX by S500 size exclusion chromatography and stored them at 4 °C in the dark. We prepared peptide and protein dilutions in 96-well black flat bottom plates (Costar) kept on ice. ANTS release from permeabilized liposomes causes an increase in fluorescence, which we monitored at 37 °C for 90 min using a CLARIOSTAR microplate reader (BMG Labtech) set at excitation and emission wavelengths of 360 and 530 nm, respectively. We normalized the data relative to maximum and minimum fluorescence induced by 3% CHAPS and buffer controls, respectively. We quantified liposome permabilization by integrating area under curve (AUC) of normalized traces based on the Simpson’s equation, and analyzed that data in Excel and GraphPad Prism. AUC measurements reflect the kinetic and extent of liposome permeabilization and provide quantitative means for comparison between different experimental conditions (e.g., BAK mutants with gross or partial variation in activity). Variability in permeabilization of different liposomes is common and our analyses compare among conditions investigated with the same liposomes. Although the absolute permeabilization values may differ, the trends for the same conditions are always very similar between different liposomes.

[2] = test system: BCL2allKO HCT116 cells reconstituted with Dox-inducible mC-BAK; assay: Dox-induced cell death by IncuCyte imaging of SYTOX Green uptake (autoactivation); type: cell-based, human; conditions: mC-BAK BCL2allKO HCT116 + Dox + qVD, average, N = 3
Description: For mammalian cell culture experiments, we cloned the full length human BAK cDNA into pCR 2.1 TOPO vector, mutated BAK as needed, and PCR amplified the BAK gene for cloning into the BamHI and NotI sites of pRETROX mCherry vector for retroviral transduction. Amplification and mutagenesis primers are included in Supplementary Table 4. To test direct BAK activation and BAK autoactivation in cells, we produced cells stably expressing mCherry-human BAK (mC-BAK) ± human BID (BID) on a genetic background devoid of the entire BCL-2 family repertoire (all 17 BCL-2 genes), BCL2allKO HCT116, as described by the Xu Luo laboratory. We expressed WT and mutant mC-BAK using the doxycycline (Dox)-based inducible Tet-On 3G retroviral system from the pRetroX-TRE3G-Puro^R in BCL2allKO HCT116 cells expressing the Tet3G from pRetroX-Tet3G-Blast^R. We selected cells with puromycin (2.5 µg/mL) and blasticidin (2 µg/mL) starting at 2 days after retroviral transduction. To enrich for populations of cells that express mC-BAK, we treated cells with low Dox dose (25 ng/mL) and fluorescence-activated cell sorted (FACS) the mCherry positive cells. We performed the enrichment twice before cell death analysis. One caveat of our cellular system is tagging BAK with N-terminal mCherry, which may affect folding efficiency, degradation, and BAK interactome.
(§1) We seeded cells in 24-well (100,000 cells/well), 96-well (15,000 cells/well), or 384-well (10,000 cells/well) plates coated with 10 µg/mL fibronectin. After ≥24 h of attachment and recovery, we induced cell death with Dox (up to 1000 ng/mL) and monitored SYTOX Green (25 nM) uptake by Incucyte imaging. This dye marks cells with compromised plasma membrane integrity. mC-BAK expressed before 24 h, which coincided with detectable cell death. We monitored Incucyte imaging for up to 48 h, followed by endpoint FACS analysis to measure the extent of cell death based on SYTOX Green positive cells on FACSCalibur systems (BD Biosciences). As expected, cells with low mCherry fluorescence were refractory to cell death.

[3] = test system: BCL2allKO HCT116 cells reconstituted with mC-BAK; assay: Endpoint FACS analysis of SYTOX Green positive cells; type: cell-based, human; conditions: average, N = 3
Procedure: as §1

| Molecule | autoactivation in liposome permeabilization assays [1] | other results |
| --- | --- | --- |
| M71A (0): BAK missense mutant (protein, UniProt Q16611 2-211, looked up, variant M71A) Bcl-2 homologous …: ASGQGPGPPRQECGEPALPSASEEQVAQDTEEVFRSYVFYRHQQEQEAEGVAAPADPEMVTLPLQPSSTAGQVGRQLAIIGDDINRRYDSEFQTMLQHLQPTAENAYEYFTKIATSLFESGINWGRVVALLGFGYRLALHVYQHGLTGFLGQVTRFVVDFMLHHCIARWIAQRGGWVAALNLGNGPILNVLVVLGVVLLGQFVVRRFFKS | behave similar to WT BAK | – |
| I85A (4): BAK missense mutant (protein, UniProt Q16611 2-211, looked up, variant I85A) Bcl-2 homologous …: ASGQGPGPPRQECGEPALPSASEEQVAQDTEEVFRSYVFYRHQQEQEAEGVAAPADPEMVTLPLQPSSTMGQVGRQLAIIGDDANRRYDSEFQTMLQHLQPTAENAYEYFTKIATSLFESGINWGRVVALLGFGYRLALHVYQHGLTGFLGQVTRFVVDFMLHHCIARWIAQRGGWVAALNLGNGPILNVLVVLGVVLLGQFVVRRFFKS | activity comparable to WT | – |
| R137A: BAK mutant in helix α1 electrostatic network (protein, UniProt Q16611 2-211, looked up, variant R137A) Bcl-2 homologous …: ASGQGPGPPRQECGEPALPSASEEQVAQDTEEVFRSYVFYRHQQEQEAEGVAAPADPEMVTLPLQPSSTMGQVGRQLAIIGDDINRRYDSEFQTMLQHLQPTAENAYEYFTKIATSLFESGINWGRVVALLGFGYALALHVYQHGLTGFLGQVTRFVVDFMLHHCIARWIAQRGGWVAALNLGNGPILNVLVVLGVVLLGQFVVRRFFKS | hyperactive compared to WT | – |
| R42A: BAK mutant in helix α1 electrostatic network (protein, UniProt Q16611 2-211, looked up, variant R42A) Bcl-2 homologous …: ASGQGPGPPRQECGEPALPSASEEQVAQDTEEVFRSYVFYAHQQEQEAEGVAAPADPEMVTLPLQPSSTMGQVGRQLAIIGDDINRRYDSEFQTMLQHLQPTAENAYEYFTKIATSLFESGINWGRVVALLGFGYRLALHVYQHGLTGFLGQVTRFVVDFMLHHCIARWIAQRGGWVAALNLGNGPILNVLVVLGVVLLGQFVVRRFFKS | hyperactive compared to WT | – |
| E46A: BAK mutant in helix α1 electrostatic network (protein, UniProt Q16611 2-211, looked up, variant E46A) Bcl-2 homologous …: ASGQGPGPPRQECGEPALPSASEEQVAQDTEEVFRSYVFYRHQQAQEAEGVAAPADPEMVTLPLQPSSTMGQVGRQLAIIGDDINRRYDSEFQTMLQHLQPTAENAYEYFTKIATSLFESGINWGRVVALLGFGYRLALHVYQHGLTGFLGQVTRFVVDFMLHHCIARWIAQRGGWVAALNLGNGPILNVLVVLGVVLLGQFVVRRFFKS | hyperactive compared to WT | – |
| I81A (3): BAK missense mutant (protein, UniProt Q16611 2-211, looked up, variant I81A) Bcl-2 homologous …: ASGQGPGPPRQECGEPALPSASEEQVAQDTEEVFRSYVFYRHQQEQEAEGVAAPADPEMVTLPLQPSSTMGQVGRQLAIAGDDINRRYDSEFQTMLQHLQPTAENAYEYFTKIATSLFESGINWGRVVALLGFGYRLALHVYQHGLTGFLGQVTRFVVDFMLHHCIARWIAQRGGWVAALNLGNGPILNVLVVLGVVLLGQFVVRRFFKS | – | AUC (48 hr) of SYTOX Green counts/confluence ([2]; Dox 100 ng/mL): 55640.5; AUC (48 hr) of SYTOX Green counts/confluence ([2]; Dox 1000 ng/mL): 85389.8; flow cytometry SYTOX Green counts/confluence (48 hr) ([3]; Dox 100 ng/mL): 37.7333; flow cytometry SYTOX Green counts/confluence (48 hr) ([3]; Dox 1000 ng/mL): 54.2 |
